Data: patent US20220025021A1 (BETH ISRAEL DEACONESS MEDICAL CENTER, published 2022)
Substitutions are numbered along the chain they refer to.

B1: MS-105 (antibody)
VH: not shown
VL: DIVLTQSPLSLSVTPGESASISCKSSHSLIHGDRNNYLAWYVQKPGRSPQLLIYLASSRASGVPDRFSGSGSDKDFTLKISRVEAEDVGTYYCMQGRESPWTFGQGTKVDIKRTVAAPSVFIFPPSDEQLKSGTASVVCLLNNFYPREAKVQWKVDNALQSGNSQESVTEQDSKDSTYSLSSTLTLSKADYEKHKVYACEVTHQGLSSPVTKSFNRGEC
B2: MS-114 (antibody)
VH: not shown
VL: B1 VL with S18P
B3: MS-118 (antibody)
VH: not shown
VL: B1 VL with S18P, D73G
B4: MS-117 (antibody)
VH: not shown
VL: B1 VL with I2F, S18P, D73G
B5: MS-108 (antibody)
VH: not shown
VL: B1 VL with L9H, D73G
B6: MS-116 (antibody)
VH: not shown
VL: B1 VL with L9H, S18P, D73G
B7: MS-107 (antibody)
VH: not shown
VL: B1 VL with L9H, S18P
B8: MS-106 (antibody)
VH: not shown
VL: B1 VL with L9H, S18P, D73G, A85T
B9: MS-109 (antibody)
VH: not shown
VL: B1 VL with I2F, S18P, D73G, A85T
B10: MS-111 (antibody)
VH: not shown
VL: B1 VL with I2F, D73G
B11: MS-115 (antibody)
VH: not shown
VL: B1 VL with D73G
B12: MS-112 (antibody)
VH: not shown
VL: B1 VL with I2F, L9H, S18P, D73G
B13: MS-110 (antibody)
VH: not shown
VL: B1 VL with I2F, S18P
B14: MS-113 (antibody)
VH: not shown
VL: B1 VL with S18P, D73G, A85T

target: HIV-1 pseudovirus 263-8 (envelope glycoprotein) (HIV-1); assay: cell-based or functional assay

Row | Binder | neutralization IC50 [µg/mL] | neutralization IC80 [µg/mL]
1 | B1 | 0.017 | 0.062
2 | B2 | 0.018 | 0.066
3 | B3 | 0.011 | 0.039
4 | B4 | 0.01 | 0.029
5 | B5 | 0.012 | 0.042
6 | B6 | 0.011 | 0.042
7 | B7 | 0.016 | 0.055
8 | B8 | 0.011 | 0.039
9 | B9 | 0.01 | 0.033
10 | B10 | 0.016 | 0.045
11 | B11 | 0.013 | 0.037
12 | B12 | 0.013 | 0.037
13 | B13 | 0.01 | 0.038
14 | B14 | 0.018 | 0.052

target: HIV-1 pseudovirus SC05.8C11.2344 (envelope glycoprotein) (HIV-1); assay: cell-based or functional assay

Row | Binder | neutralization IC50 [µg/mL] | neutralization IC80 [µg/mL]
15 | B1 | 0.794 | 2.73
16 | B2 | 0.81 | 3.86
17 | B3 | 0.449 | 1.54
18 | B4 | 0.432 | 1.48
19 | B5 | 0.428 | 1.45
20 | B6 | 0.456 | 1.62
21 | B7 | 0.658 | 2.28
22 | B8 | 0.411 | 1.44
23 | B9 | 0.546 | 1.85
24 | B10 | 0.496 | 1.69
25 | B11 | 0.436 | 1.51
26 | B12 | 0.501 | 1.68
27 | B13 | 0.914 | 3.1
28 | B14 | 0.573 | 1.94

target: HIV-1 pseudovirus X1193_c1 (envelope glycoprotein) (HIV-1); assay: cell-based or functional assay

Row | Binder | neutralization IC50 [µg/mL] | neutralization IC80 [µg/mL]
29 | B1 | 0.067 | 0.417
30 | B2 | 0.124 | 0.404
31 | B3 | 0.085 | 0.287
32 | B4 | 0.064 | 0.226
33 | B5 | 0.083 | 0.545
34 | B6 | 0.064 | 0.222
35 | B7 | 0.13 | 0.57
36 | B8 | 0.093 | 0.394
37 | B9 | 0.073 | 0.467
38 | B10 | 0.109 | 0.352
39 | B11 | 0.08 | 0.274
40 | B12 | 0.069 | 0.293
41 | B13 | 0.106 | 0.677
42 | B14 | 0.098 | 0.421

target: HIV-1 pseudovirus Ce1176_A3 (envelope glycoprotein) (HIV-1); assay: cell-based or functional assay

Row | Binder | neutralization IC50 [µg/mL] | neutralization IC80 [µg/mL]
43 | B1 | 0.172 | 3.39
44 | B2 | 0.139 | 7.39
45 | B3 | 0.26 | 8.12
46 | B4 | 0.113 | 2.17
47 | B5 | 0.117 | 3.84
48 | B6 | 0.145 | 3.12
49 | B7 | 0.147 | 3.99
50 | B8 | 0.099 | 3.43
51 | B9 | 0.078 | 5.83
52 | B10 | 0.082 | 3.12
53 | B11 | 0.18 | 6.3
54 | B12 | 0.068 | 2.03
55 | B13 | 0.097 | 2.5
56 | B14 | 0.182 | 6.05

target: HIV-1 pseudovirus AC10.0.29 (envelope glycoprotein) (HIV-1); assay: cell-based or functional assay

Row | Binder | neutralization IC50 [µg/mL] | neutralization IC80 [µg/mL]
57 | B1 | 0.051 | 0.394
58 | B2 | 0.066 | 0.313
59 | B3 | 0.056 | 0.273
60 | B4 | 0.051 | 0.252
61 | B5 | 0.045 | 0.216
62 | B6 | 0.052 | 0.258
63 | B7 | 0.079 | 0.397
64 | B8 | 0.062 | 0.299
65 | B9 | 0.04 | 0.199
66 | B10 | 0.061 | 0.258
67 | B11 | 0.049 | 0.249
68 | B12 | 0.056 | 0.262
69 | B13 | 0.076 | 0.285
70 | B14 | 0.052 | 0.245

target: HIV-1 pseudovirus 6952.v1.c20 (envelope glycoprotein) (HIV-1); assay: cell-based or functional assay

Row | Binder | neutralization IC50 [µg/mL] | neutralization IC80 [µg/mL]
71 | B1 | 0.706 | 9.49
72 | B2 | 0.146 | 1.37
73 | B3 | 0.392 | 12.2
74 | B4 | 0.208 | 3.84
75 | B5 | 0.323 | 3.37
76 | B6 | 0.341 | 7.51
77 | B7 | 0.457 | 8.87
78 | B8 | 0.216 | 3.8
79 | B9 | 0.188 | 1.74
80 | B10 | 0.213 | 2.1
81 | B11 | 0.303 | 4.7
82 | B12 | 0.16 | 1.47
83 | B13 | 0.195 | 2.12
84 | B14 | 0.351 | 5.03
